Reference: the supplement of paper PMC9732359
± gives the uncertainty stated by the source.

Test: protein stability index of a GFP-peptide fusion (yeast GPS) (PSI 1-4); higher = more stable; sorted into four equal gates, so the index is relative within each strain
How it was run: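 Peptides tiling yeast proteins in 17-residue segments were fused downstream of GFP, with Cherry expressed from the same plasmid. As a pooled library in yeast, mid-log cultures grown in leucine-free medium were sorted into four equal gates by GFP/Cherry fluorescence ratio. Gate plasmids were PCR-amplified and Illumina-sequenced, and barcodes linked reads to strains. Each peptide received a protein stability index equal to the sum of each gate's read frequency times its gate number.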

TSSAFFYQQVHKKDRLQ [SIR4]
protein stability index (doa10∆): 2.43 ± 0.048 | protein stability index (pdr5∆): 2 ± 0.046 | protein stability index (san1∆): 2.26 ± 0.053 | protein stability index (ubr1∆): 2.44 ± 0.032

VPISTSQTNNSFLSGVK [SIR4]
protein stability index (doa10∆): 2.56 ± 0.054 | protein stability index (pdr5∆): 2.73 ± 0.07 | protein stability index (san1∆): 2.63 ± 0.067 | protein stability index (ubr1∆): 2.95 ± 0.057

SPLQSSKSKQSFTQGEL [YMR129W/POM152]
protein stability index (doa10∆): 2.88 ± 0.055 | protein stability index (pdr5∆): 2.8 ± 0.061 | protein stability index (san1∆): 2.73 ± 0.055 | protein stability index (ubr1∆): 2.95 ± 0.05

FYERLDKSTTQLRKEIQ [MED11]
protein stability index (doa10∆): 2.61 ± 0.063 | protein stability index (pdr5∆): 2.82 ± 0.081 | protein stability index (san1∆): 2.47 ± 0.064 | protein stability index (ubr1∆): 2.9 ± 0.072

AMDRAHRIGQKKQVHVY [ISW2]
protein stability index (doa10∆): 2.71 ± 0.095 | protein stability index (pdr5∆): 2.75 ± 0.078 | protein stability index (san1∆): 2.84 ± 0.085 | protein stability index (ubr1∆): 2.66 ± 0.074

YAQRIGSGAPVYLTAVL [HTA1]
protein stability index (doa10∆): 2.35 ± 0.058 | protein stability index (pdr5∆): 2.48 ± 0.072 | protein stability index (san1∆): 2.53 ± 0.097 | protein stability index (ubr1∆): 2.35 ± 0.051

EAEFSLRELSCCINAAF [RRP46]
protein stability index (doa10∆): 2.63 ± 0.053 | protein stability index (pdr5∆): 2.83 ± 0.064 | protein stability index (san1∆): 2.76 ± 0.047 | protein stability index (ubr1∆): 2.97 ± 0.056

KADTDTLLYEQIIQRDK [SNF5]
protein stability index (doa10∆): 3.23 ± 0.11 | protein stability index (pdr5∆): 3.37 ± 0.11 | protein stability index (san1∆): 3.21 ± 0.062 | protein stability index (ubr1∆): 3.29 ± 0.064

KVEKVVKCKMSALQQIM [SNF2]
protein stability index (doa10∆): 2.86 ± 0.12 | protein stability index (pdr5∆): 3.05 ± 0.24 | protein stability index (san1∆): 2.95 ± 0.14 | protein stability index (ubr1∆): 3.13 ± 0.09

KPETLSIGKNPFNKPNI [SWI3]
protein stability index (doa10∆): 2.85 ± 0.044 | protein stability index (pdr5∆): 2.9 ± 0.041 | protein stability index (san1∆): 2.75 ± 0.033 | protein stability index (ubr1∆): 2.99 ± 0.03

WKSPEWIQVFGLRTENV [MED6]
protein stability index (doa10∆): 2.14 ± 0.084 | protein stability index (pdr5∆): 2.22 ± 0.058 | protein stability index (san1∆): 2 ± 0.13 | protein stability index (ubr1∆): 2.35 ± 0.072

LARSGLRIGRIEDVTPV [RPS14B]
protein stability index (doa10∆): 1.63 ± 0.046 | protein stability index (pdr5∆): 1.95 ± 0.052 | protein stability index (san1∆): 2.25 ± 0.062 | protein stability index (ubr1∆): 2.07 ± 0.043

FDVNTLCLMTWKEVMFD [CDC53]
protein stability index (doa10∆): 2.61 ± 0.096 | protein stability index (pdr5∆): 2.59 ± 0.065 | protein stability index (san1∆): 2.81 ± 0.11 | protein stability index (ubr1∆): 2.85 ± 0.068

KTKKLNLSAFKIVYIAP [BRR2]
protein stability index (doa10∆): 2.13 ± 0.056 | protein stability index (pdr5∆): 2.1 ± 0.052 | protein stability index (san1∆): 2.19 ± 0.069 | protein stability index (ubr1∆): 2.27 ± 0.052

FNEDQLFSLLELGEQKC [RRP46]
protein stability index (doa10∆): 2.37 ± 0.071 | protein stability index (pdr5∆): 2.6 ± 0.089 | protein stability index (san1∆): 2.61 ± 0.071 | protein stability index (ubr1∆): 2.36 ± 0.062

LYFPDDYPFTQLGYIEN [POP1]
protein stability index (doa10∆): 2.71 ± 0.12 | protein stability index (pdr5∆): 3.18 ± 0.074 | protein stability index (san1∆): 3.1 ± 0.071 | protein stability index (ubr1∆): 3.16 ± 0.068

GESARRFQKCFPPGVIG [RPC40]
protein stability index (doa10∆): 2.24 ± 0.1 | protein stability index (pdr5∆): 2.34 ± 0.18 | protein stability index (ubr1∆): 2.83 ± 0.12

VTVDQYVNVAISIYNML [SSN2]
protein stability index (doa10∆): 1.72 ± 0.057 | protein stability index (pdr5∆): 1.88 ± 0.062 | protein stability index (san1∆): 1.52 ± 0.12 | protein stability index (ubr1∆): 1.44 ± 0.052

RLNFNQNSSKIVNVLSK [SWI3]
protein stability index (doa10∆): 2.56 ± 0.057 | protein stability index (pdr5∆): 2.7 ± 0.051 | protein stability index (san1∆): 3.04 ± 0.048 | protein stability index (ubr1∆): 2.93 ± 0.042

TNSEDKLSKVQLYEDLC [MED4]
protein stability index (doa10∆): 3.04 ± 0.083 | protein stability index (pdr5∆): 3.22 ± 0.091 | protein stability index (san1∆): 3.09 ± 0.081 | protein stability index (ubr1∆): 2.74 ± 0.059

GALQESVEAYLVSLFED [HHT1]
protein stability index (doa10∆): 1.42 ± 0.095 | protein stability index (pdr5∆): 2.62 ± 0.12 | protein stability index (san1∆): 2.29 ± 0.12 | protein stability index (ubr1∆): 2.05 ± 0.08

FLLNQNKQLSQSVEEKV [YIL149C/MLP2]
protein stability index (doa10∆): 2.16 ± 0.084 | protein stability index (pdr5∆): 1.84 ± 0.1 | protein stability index (san1∆): 1.77 ± 0.14 | protein stability index (ubr1∆): 2.09 ± 0.068

VFNNGIVVLVPKFGVEG [DIS3]
protein stability index (doa10∆): 2.22 ± 0.073 | protein stability index (pdr5∆): 2.24 ± 0.072 | protein stability index (san1∆): 2.27 ± 0.074 | protein stability index (ubr1∆): 2.32 ± 0.053

KVVLKALFLSKINRPPV [RPL18A]
protein stability index (doa10∆): 2.28 ± 0.12 | protein stability index (pdr5∆): 1.53 ± 0.067 | protein stability index (san1∆): 1.41 ± 0.16 | protein stability index (ubr1∆): 1.46 ± 0.083

VNQDSTYKYFEVILVDP [RPL15A]
protein stability index (doa10∆): 3.21 ± 0.068 | protein stability index (pdr5∆): 3.43 ± 0.082 | protein stability index (san1∆): 3.12 ± 0.048 | protein stability index (ubr1∆): 3.19 ± 0.057

LLGYTGIPTDKGPRFRK [PRE8]
protein stability index (doa10∆): 2.81 ± 0.18 | protein stability index (pdr5∆): 3.02 ± 0.14 | protein stability index (san1∆): 2.66 ± 0.066 | protein stability index (ubr1∆): 2.98 ± 0.11

TGESWVKLTYNSPSSAL [YDL088C/ASM4]
protein stability index (doa10∆): 2.31 ± 0.058 | protein stability index (pdr5∆): 1.75 ± 0.055 | protein stability index (san1∆): 2.08 ± 0.067 | protein stability index (ubr1∆): 2.02 ± 0.04

SKKKKNIKKKDTKDALS [RPC53]
protein stability index (doa10∆): 3.3 ± 0.17 | protein stability index (pdr5∆): 3.5 ± 0.14 | protein stability index (san1∆): 3.21 ± 0.089 | protein stability index (ubr1∆): 3.3 ± 0.21

ADLESFANNHFLNSNAV [COR1]
protein stability index (doa10∆): 2.63 ± 0.11 | protein stability index (pdr5∆): 2.87 ± 0.074 | protein stability index (san1∆): 2.99 ± 0.056 | protein stability index (ubr1∆): 2.71 ± 0.082

PELLDSLAILGMNLLSN [SWI1]
protein stability index (doa10∆): 2.1 ± 0.061 | protein stability index (pdr5∆): 2.21 ± 0.073 | protein stability index (san1∆): 2.05 ± 0.079 | protein stability index (ubr1∆): 1.92 ± 0.066

IKQTSDESTIKRIKPNT [ECM29]
protein stability index (doa10∆): 3 ± 0.073 | protein stability index (pdr5∆): 3 ± 0.068 | protein stability index (san1∆): 2.85 ± 0.048 | protein stability index (ubr1∆): 2.94 ± 0.059

LLEQKKSIINSQRPGAR [ITC1]
protein stability index (pdr5∆): 2.67 ± 0.2 | protein stability index (san1∆): 2.47 ± 0.23 | protein stability index (ubr1∆): 2.62 ± 0.11

ANPVVATDPVAAKPDNL [SWP82]
protein stability index (doa10∆): 3.26 ± 0.087 | protein stability index (pdr5∆): 3.15 ± 0.097 | protein stability index (san1∆): 3.23 ± 0.085 | protein stability index (ubr1∆): 3.1 ± 0.05

SAAATPSLNKTINGKVN [GAL11]
protein stability index (doa10∆): 2.9 ± 0.06 | protein stability index (pdr5∆): 3.14 ± 0.041 | protein stability index (san1∆): 2.81 ± 0.042 | protein stability index (ubr1∆): 3.01 ± 0.046

ISKKLQFSYLSSTLGID [PCI8]
protein stability index (doa10∆): 2.08 ± 0.055 | protein stability index (pdr5∆): 1.67 ± 0.054 | protein stability index (san1∆): 1.49 ± 0.097 | protein stability index (ubr1∆): 1.63 ± 0.044

SCQGNVIYRNSLYKVSF [YMR129W/POM152]
protein stability index (doa10∆): 2.54 ± 0.064 | protein stability index (pdr5∆): 2.76 ± 0.068 | protein stability index (san1∆): 2.56 ± 0.064 | protein stability index (ubr1∆): 2.71 ± 0.094

NVKEEETVAKSKNAERK [RPS8A]
protein stability index (doa10∆): 3.07 ± 0.038 | protein stability index (pdr5∆): 3.09 ± 0.035 | protein stability index (san1∆): 3.215 ± 0.022 | protein stability index (ubr1∆): 3.001 ± 0.029

APMYILDEVDAALDLSH [SMC2]
protein stability index (doa10∆): 2.94 ± 0.29 | protein stability index (pdr5∆): 2.85 ± 0.21 | protein stability index (san1∆): 2.92 ± 0.23 | protein stability index (ubr1∆): 3 ± 0.073

LTMANLPSWSLGKWYSK [ARP7]
protein stability index (doa10∆): 3.17 ± 0.15 | protein stability index (pdr5∆): 3.28 ± 0.11 | protein stability index (san1∆): 2.88 ± 0.17 | protein stability index (ubr1∆): 2.85 ± 0.19

FAFLNAMFFGNYGSSLQ [AAR2]
protein stability index (doa10∆): 2.9 ± 0.064 | protein stability index (pdr5∆): 2.5 ± 0.075 | protein stability index (san1∆): 2.91 ± 0.072 | protein stability index (ubr1∆): 2.56 ± 0.069

NDIPLGSGQPDNDTVVT [SRB8]
protein stability index (doa10∆): 3.3 ± 0.12 | protein stability index (pdr5∆): 3.18 ± 0.16 | protein stability index (san1∆): 2.51 ± 0.14 | protein stability index (ubr1∆): 3.12 ± 0.28

RLGSFTRAKAKVEEMNN [RPL36A]
protein stability index (pdr5∆): 2.61 ± 0.2 | protein stability index (san1∆): 2.85 ± 0.19 | protein stability index (ubr1∆): 2.87 ± 0.28
